Test results as given in article PMC9563714.

Biological target: T1, Vfr (Pseudomonas aeruginosa UCBPP-PA14) (UniProt P55222)
T1 sequence: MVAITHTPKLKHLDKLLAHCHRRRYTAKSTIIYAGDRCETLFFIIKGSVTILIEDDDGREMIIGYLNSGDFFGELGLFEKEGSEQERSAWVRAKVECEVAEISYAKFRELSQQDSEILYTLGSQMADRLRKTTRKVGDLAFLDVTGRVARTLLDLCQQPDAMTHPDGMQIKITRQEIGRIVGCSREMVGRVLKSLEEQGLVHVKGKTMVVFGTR
Test: EMSA

Question: How did the binding turn out when “TCTGACCCATCCGCGCGACTGGCCCCCGGGCCGGTCGCTCCCCCGGGACGACCGTCGGTCCCGGATCGGCGCGCTTTCCTGAACTATCGATCAGCTGTCACTGGCCGCCGCGCAAACGCTTGGTTAAGATTCCGCCAGCAACCTGGCCACCCGCCATTCCCCAGGCGGAAAGCTCACGAGGCCGAGCCGGGACGAAAATACACAGGGATCCTCTCCAGCGCATG (double strand) [PcyaB]” was run?
Answer: Its binding is “no binding”.
